Consider 70 sequences from the domain aggregation screens of Martell et al. (2025).
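Further: 20 min heating vs room temperature control held 20 min.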

The series can be described thus: soluble fraction after stress (log2 fold change); higher = more stays soluble; pooled small domains, quantitative proteomics. The following applies: stress: 75 degC.
For the sequence “HMESLGEKIKNIRISNNLKQSELADILHISEKTISSWENNRTTPDLNMIYKISNYFKKSFYYLISDDYI”, the “soluble fraction (log2)” value is -0.908. The value for “HMESMIGSLRGRLLELFGDGEVLIEVGGVGYRVIVTPTTTVRLGDVGGDVFVHVHHHIREADQTLYGF” was -0.48.

For “HMESPSGGHRIALAFDQGTARAVDATYARLTGAGYEGRTKPWDAPWGQRYATVFDPDGNSVDLFAALE”, the “soluble fraction (log2)” value is -0.445.

Regarding “HMESRDRVRQASAAGYRFMSTMAGHEPGFEEASRALFAGDQTAFEARITAWPVDVQTHLKKILAEAFTT”, the “soluble fraction (log2)” value is -1.17. The value for “HMESRLQAAIALRKAGEHEQSREALKILADEPALRAQALLNIAWSFDNQGHERDAEGYYLAAIE” was -0.381; that for “HMESSKLQASIINYLERRPTQKFTAEELFKGLSLEKASVFNELVKELTSLERSHKVEITADDKFKIARPQ” was -0.331; that for “HMESSSQLGFELARLVESGNDEEARALVQAKELSEADERKWLYHLGNLLHAAGRPLQASAIWREVGT” was 0.0141. With “HMESVQWSVFPSAKYVTIISFDPTTSGGSATAKFKVSDEARSKGFRFRIEAAIGEGIMRSEMYVIEE”, the “soluble fraction (log2)” value worked out at 0.215. With “HMESWNRARILEKIRELHAQGVALNNASMRRLGYRGMMEAAARPQNFGSWEAAVRAAGIDYDRV”, the “soluble fraction (log2)” value is -0.275. The value for “HMETAVMPDVMKLDSTTAIQALKDKGFATIETYEVKSDRPAGVVVRQSETADSVVALSKEILLGVSNGADY” was at least 1.04; that for “HMETGFADTLRKFRKEADMTQEKLAEALGVTTGAVYKWENGRSTPEVRLLVEMADLFGTSVDALLDYKVR” was -1.33. As for “HMETGKLIKELRLKKGMTQEELADKTEVSSRTIQRIENGEVDPRAYTLQMIARALEVDYSLFME”, the “soluble fraction (log2)” value was -0.408.

“HMETIELSAPGGVRLDKLIADGTELSRSAAVKLIEQGNVLVNGSPAGKKDIPAAGAAVEITLPEPQ”: the “soluble fraction (log2)” value worked out at 0.0135. Under “HMETIGENIKTYRQKKGYTQEEVANRLHVTRQTISKWEKNYSIPDAEVLVKLADVLEVQTSQLLGV” stands -0.374; under “HMETIGKRVRAARQELGLTMKQLHEQTGLSTGNISDIENDRNTPSVSSLVALGRALRRSLDWLLTGEE”, -0.959; under “HMETISEIWRLIDGLDEIYRVPLTMYYRSNRSVREIAETLGLSARTVETRIYRARRMIREKWSN”, -2.06. Under “HMETITDRLNRRSLELNVSQADIIRTTGAGRGTVSGWFSGANAPSAKYLESLAVALKTSTTWLLSGKD” stands -2.23; under “HMETKERDEQFLEMIRQNEGIIFKVASFYVDKEHPIGDLYQEVVLNLWKGYPSFRGESKYSTWIYRIALNT”, 0.058; under “HMETKPTELMLEVHELRIGMFVHLDLGWMDHPFPLNRFKISTNSQIEQIKGLRLKQVKVMTALSDPTALS”, -2.29. “HMETKQYIVEAQDEGTRLDVYLTKELGQSRSYVQSLVKEGHVQVNGKTGKSNLKLSSSSEILVTIPEVQ”: the “soluble fraction (log2)” value amounted to 0.067. Take “HMETLKINTHLGTLNLKKRGKKGTWQINIYFKNIEGDNHYRQSTGTNQLELAKAKAMNMITTEYSNRLAGI”: the “soluble fraction (log2)” value was -1.67.

For “HMETMSYAEFNAIRIGKAKLMLADPSLKIWEISEAVGYTDTAHFARTFKKLEGMSANEYRNSL”, the “soluble fraction (log2)” value is -0.862. The value for “HMETNFTGTRIATARKAKNMSQAQLAQQLFISPQAVGKWERGESIPDIVTVVKLADVLGVDLNYFSE” was -0.572. “HMETPQIVARGDLITMVFRSGSLVLTAKGKALENGAMGDTIRVVNSDSNKTLAARVSASREVTVSE”: the “soluble fraction (log2)” value was -0.549. “HMETPSNTAGITHATSDGYIFKGESDIIGRNSFGFIVKHGSHNHIIPFDSLRGTKWEYLINKYT”: the “soluble fraction (log2)” value was 0.000248. Under “HMETSVDEVYKKIQAYIEAEDKHKPLSDQKLAEQLQSDGLKVSRRTVAKYREKLNIASSSKRKR” stands 0.242; under “HMETTVPNVLNHNISTGEILLKENNLNFRIQYIPSNKDEAVGTIINSVPTSGEKVKFGTVVDLKVL”, 0.146. Under “HMETVRHFRLDWSQAADRLDKVLASLMNDVSRARIQEWIRLGAVSVNGEILTDVRAKVAGGDAIDVTPQTA” stands -0.722; under “HMETVRLSVDAQGAYYWNEQRVDDSALPDLLREASGRKPQPDLHIRGDKAVRYERVAEAMAAAQRAGLKKI”, 0.272; under “HMETVVTEVKTTDVVNIRTSDSETADKLSKAAIGDTFPLLEERGNGWSKVAYNGEEAFIKSDYLEPSKTE”, 0.0124. Turning to “HMETYEFNITDKEQTGMRVDKLLPELNSDWSRNQIQDWIKAGLVVANDKVVKSNYKVKLNDHIVVTEKEV”, the “soluble fraction (log2)” value came out at 0.0567. The value for “HMETYPINVETTGTNVLLRTGPSTSSNIIKTITDKGTVFLSIERGINSDWQKVVTPDGTIGYMSGKY” was 0.00405. Consider “HMEVAVQFIEFKIPENHAWIGKEIREITFPPESILVLIIRDGKKLVPNGKTVLKEGDSLILSGKASD”, for which the “soluble fraction (log2)” value is -1.43. “HMEVDDEAIYQGHEPSIRLHRLLKDVGYNSALLPSVVTQIFKDFPGIELAKALPIAMQLLNED”: the “soluble fraction (log2)” value is -0.617. Take “HMEVFGDTKEEQMIIDILKLGITDLEHLQAKSMLEPAIFSQTLTMLEISGKIRPLGAGHWTL”: the “soluble fraction (log2)” value was -2.87. Regarding “HMEVFTPSEANVAEAREILAAMATAKANGEGATVYKGRLVDIASIKQAEVIVRQSEMIQSAH”, the “soluble fraction (log2)” value was found to be 0.696. For “HMEVIDQLFKIALTLFDIDKGENNSISQDLVDKVIEQMKTTAPTFIKRELSEDEVKKLRFEIQNHFNV”, the “soluble fraction (log2)” value was -0.482. On to “HMEVKSGFVHLTGAVKSPGVYPISIGMRLFEVIALAGGFTAKADRESVNLARTVTDGEQIIVSGSG”, for which the “soluble fraction (log2)” value is -3.72. Turning to “HMEVLEGFIEDIKFKSEESGYTVAKLNNRNKSIVIVGTMPFISEGQHVKLTGEWKIHQKFGAQFNVKELEE”, the “soluble fraction (log2)” value is -0.923. For the sequence “HMEVMYFIYQQEEPMRIDKFLVNEMEDFSRNSIQIYIKDNHVLVNDKVVKANYILKKGDAISITIPDPI”, the “soluble fraction (log2)” value was -1.14. Take “HMEVNMEEKMEFVHSYIKTHKTFLFRQLLSESKSRTQVIVTFLVILELIKGGKISVTQENRTDDILINSL”: the “soluble fraction (log2)” value is 0.0528.

As for “HMEVPDTIIRLRELVAAMPEQWQKVYRLVFMEGLSKAKAGKKIGISDVRVGQLVKKINAAIAGDETLK”, the “soluble fraction (log2)” value is -1.01. Consider “HMEVPMELPRQLRANRERLGLSQEDVAHAIYVSRQTMSSWERGKTYPDVQSLMLLSHLFGISIDELVKGDV”, for which the “soluble fraction (log2)” value was -1.57. The value for “HMEVPVQYIKFKIPENHFWAKKKVADIILPPETLLVLLQRGSDKMIPDGETVLLPEDTLVLIAKAPG” was -0.479; that for “HMEVSVPDFTGMSKSDAQNAAKEAGLTVNFEEDYDNQVPAGQVIRSNPSAGEKVKKNSSVTVTLSKGSN” was 0.128; that for “HMEVSYSLPRFHKGKNPYVDFYQVDPRTLRMRRKKFLLRGVRDAVLLEQRAADLVALLTERLHSGWNAWDD” was -2.1. The value for “HMEVTENQEKHAYQEAMDQALRFLAPRFLSRAELTRKLLQKEHDRDVIDAVIDRLEELDYVDDAR” was -0.013; that for “HMEVTLGLGSMVRLLGEPYLGSTGRVVELPDQAERFASGLTAKVAVVERHDGELIRVPVTNLLLME” was -1.25; that for “HMEVTLTLKSFGTAKVAVIKAIQSITGLGLMDAKKLVDAAPSVIKEKISPSEAEQYKKTLVDAGAEVEI” was -2.31. Take “HMEVVVPDFEKIYIRDLDKFVEGHNVRYEIVDSIYNLEKDKGTVVDQDPEPGSKVKHGRVIYLTVNAML”: the “soluble fraction (log2)” value was -0.231. The value for “HMEVVVPEDLDAALQQASRAQSFFSSLSYTHKKEYVAWINEAKRAETRAMRIQKTITMLESGQRGH” was -2.35; that for “HMEWEVHSVTVTPELSGERLDVAATALLSQFSRALVQRWIDANELTLNERPVKAKSKVRVGDLIAVKAK” was -1.06; that for “HMEWLENIKKLKKEKGLTNESLSEKSGISVGTLNKLLSGATTDPKLSTLRPLADALEVSLDELLAI” was -0.0723. The value for “HMEWTDIPTHKVPNVVGKSVEEAKKKLSKFTIEYSGTGEKVVAQSPDAGEKLEEGGTVRLLL” was -0.136; that for “HMEYEETMSQIKHNLNLLPRQQRVIIEMAKFDELTPAEIAKQLGISVQTVRNQLSTGLKKLRQLL” was 0.0391. As to “HMEYKKKIGELLIDGNKKLKAANIDTYILDTQLLLGKVLGKDKLYLITNKDEEVSNFKEREFYSLIEKRI”, the “soluble fraction (log2)” value was 0.0872. Regarding “HMEYMKQRLYDIIELFKRSFSPSFSEEEKKKLENVLQDDFLRKAYEQLSDEVFIEEKFREFDGY”, the “soluble fraction (log2)” value is -2.88. Consider “HMEYPNEIARIFNQIPELNVSAVARTLGINKSLLSSYIYGMKKPSPERTEEIKSAIRKIGQNMLAV”, for which the “soluble fraction (log2)” value was -0.927.

As for “HMEYQSLVLDFLEQGDFNAEKLKDYQRAFAKQNGMQTLPSKSQILQAYFQLVEEKKINKNSDFELLLRKR”, the “soluble fraction (log2)” value was -0.32. Under “HMEYSNLGEALRRLSEIDLQIILLKYSHGFSIKEISKILDIKEVNLYKRNKRALNKLKKILAEMEVLSN” stands -0.34; under “HMEYYDDEELDRFRGVEADAYDEDAVNEFRDVLYTLQEIEVAGWLRSLQLRAINLPDELKDEAFLI”, -1.48; under “HMEYYEDEELDRFRGRNSDQYSDAEIEEFNEILTTLRSEEVAGWIRSLQLREIALPDELKDDVILLVG”, -0.903.

On to “HMEYYIMPVANLHKVVVDGKDMSNLISNNAIAVKANVIDEGQIQIKPGEIIITTPAGVSPEEAVRSP”, for which the “soluble fraction (log2)” value is at least 1.04. The value for “HMFANQLLLTRFDLNYIKSDVLSRQIDVLGIPIKKLTIEANNKSIWLQGTSQSLSKVRELIGIIDIRENA” was -3.38; that for “HMFAQDKKFITYKVKEGETVQSISKALSITPYDLLKLNPDIKDNVSQDDLLIIPNKQYDPLGDI” was 0.378. The value for “HMFDENVKLIENEYDVSIISRGSELKVMGDVENVDKAARALRSMLAMINKGESLTEQNVRYVLTLVNEGNE” was -0.735; that for “HMFDFLELGQAIQDAREKQRITREELAEELGISARHLQSVEKEGQYPSFRLFIQLVTMFHISVDQYI” was -0.0535. Under “HMFDLATVKRVAEEAGMKFTIHPVELRAAHPNTAVLTLKSKAGRILVLKAASVGGGRIRVTEIDGVPAD” stands -0.335; under “HMFDLDIEQIANDLKHGVMPNLYGLSLQDALYLLEAKGIRVKVAGSGSVVNQSIKTGAYVGSGSVLKLEL”, -1.78.

With “HMFDLSQRQEQIIEIVRKHGPITGEKIADLLYVTRAALRPDLAILTMSGYLEAKPRVGYTYK”, the “soluble fraction (log2)” value is -1.64.
